B1: EF-hand domain-containing protein 1 (Homo sapiens), Q5JVL4 (parent)
chain: MVSNPVHGLPFLPGTSFKDSTKTAFHRSQTLSYRNGYAIVRRPTVGIGGDRLQFNQLSQAELDELASKAPVLTYGQPKQAPPADFIPAHVAFDKKVLKFDAYFQEDVPMSTEEQYRIRQVNIYYYLEDDSMSVIEPVVENSGILQGKLIKRQRLAKNDRGDHYHWKDLNRGINITIYGKTFRVVDCDQFTQVFLESQGIELNPPEKMALDPYTELRKQPLRKYVTPSDFDQLKQFLTFDKQVLRFYAIWDDTDSMYGECRTYIIHYYLMDDTVEIREVHERNDGRDPFPLLMNRQRVPKVLVENAKNFPQCVLEISDQEVLEWYTAKDFIVGKSLTILGRTFFIYDCDPFTRRYYKEKFGITDLPRIDVSKREPPPVKQELPPYNGFGLVEDSAQNCFALIPKAPKKDVIKMLVNDNKVLRYLAVLESPIPEDKDRRFVFSYFLATDMISIFEPPVRNSGIIGGKYLGRTKVVKPYSTVDNPVYYGPSDFFIGAVIEVFGHRFIILDTDEYVLKYMESNAAQYSPEALASIQNHVRKREAPAPEAESKQTEKDPGVQELEALIDTIQKQLKDHSCKDNIREAFQIYDKEASGYVDRDMFFKICESLNVPVDDSLVKELIRMCSHGEGKINYYNFVRAFSN
partner: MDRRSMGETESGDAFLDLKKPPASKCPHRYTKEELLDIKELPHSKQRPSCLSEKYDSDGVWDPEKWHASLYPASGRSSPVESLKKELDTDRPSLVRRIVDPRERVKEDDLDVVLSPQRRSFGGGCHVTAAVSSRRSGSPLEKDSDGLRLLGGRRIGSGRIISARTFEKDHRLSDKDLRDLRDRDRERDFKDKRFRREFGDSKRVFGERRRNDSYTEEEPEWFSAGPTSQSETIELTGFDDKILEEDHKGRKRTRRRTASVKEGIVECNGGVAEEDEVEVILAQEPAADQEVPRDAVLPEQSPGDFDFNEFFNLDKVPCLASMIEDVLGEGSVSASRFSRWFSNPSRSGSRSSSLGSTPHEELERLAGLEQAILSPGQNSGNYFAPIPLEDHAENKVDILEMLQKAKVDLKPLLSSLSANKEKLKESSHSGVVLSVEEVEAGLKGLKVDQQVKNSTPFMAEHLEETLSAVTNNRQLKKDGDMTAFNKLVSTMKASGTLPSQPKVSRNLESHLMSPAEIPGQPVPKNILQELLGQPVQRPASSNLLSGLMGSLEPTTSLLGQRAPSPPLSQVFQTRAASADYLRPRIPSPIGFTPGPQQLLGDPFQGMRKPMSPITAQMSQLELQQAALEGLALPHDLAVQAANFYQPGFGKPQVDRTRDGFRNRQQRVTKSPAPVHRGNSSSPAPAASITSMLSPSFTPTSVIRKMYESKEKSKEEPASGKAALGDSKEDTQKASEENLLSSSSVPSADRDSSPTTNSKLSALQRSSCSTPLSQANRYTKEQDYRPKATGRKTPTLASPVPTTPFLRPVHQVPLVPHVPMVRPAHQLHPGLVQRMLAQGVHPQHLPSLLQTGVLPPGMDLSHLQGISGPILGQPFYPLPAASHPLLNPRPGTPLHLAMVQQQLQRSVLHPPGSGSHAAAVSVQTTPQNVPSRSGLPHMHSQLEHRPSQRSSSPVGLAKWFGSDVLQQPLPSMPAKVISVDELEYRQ
B2: Lipopolysaccharide-induced tumor necrosis factor-alpha factor (Homo sapiens), Q99732 (parent)
chain: MSVPGPYQAATGPSSAPSAPPSYEETVAVNSYYPTPPAPMPGPTTGLVTGPDGKGMNPPSYYTQPAPIPNNNPITVQTVYVQHPITFLDRPIQMCCPSCNKMIVSQLSYNAGALTWLSCGSLCLLGCIAGCCFIPFCVDALQDVDHYCPNCRALLGTYKRL
B3: Plakophilin-2 (Homo sapiens), Q99959 (parent)
chain: MAAPGAPAEYGYIRTVLGQQILGQLDSSSLALPSEAKLKLAGSSGRGGQTVKSLRIQEQVQQTLARKGRSSVGNGNLHRTSSVPEYVYNLHLVENDFVGGRSPVPKTYDMLKAGTTATYEGRWGRGTAQYSSQKSVEERSLRHPLRRLEISPDSSPERAHYTHSDYQYSQRSQAGHTLHHQESRRAALLVPPRYARSEIVGVSRAGTTSRQRHFDTYHRQYQHGSVSDTVFDSIPANPALLTYPRPGTSRSMGNLLEKENYLTAGLTVGQVRPLVPLQPVTQNRASRSSWHQSSFHSTRTLREAGPSVAVDSSGRRAHLTVGQAAAGGSGNLLTERSTFTDSQLGNADMEMTLERAVSMLEADHMLPSRISAAATFIQHECFQKSEARKRVNQLRGILKLLQLLKVQNEDVQRAVCGALRNLVFEDNDNKLEVAELNGVPRLLQVLKQTRDLETKKQITDHTVNLRSRNGWPGAVAHACNPSTLGGQGGRITRSGVRDQPDQHGLLWNLSSNDKLKNLMITEALLTLTENIIIPFSGWPEGDYPKANGLLDFDIFYNVTGCLRNMSSAGADGRKAMRRCDGLIDSLVHYVRGTIADYQPDDKATENCVCILHNLSYQLEAELPEKYSQNIYIQNRNIQTDNNKSIGCFGSRSRKVKEQYQDVPMPEEKSNPKGVEWLWHSIVIRMYLSLIAKSVRNYTQEASLGALQNLTAGSGPMPTSVAQTVVQKESGLQHTRKMLHVGDPSVKKTAISLLRNLSRNLSLQNEIAKETLPDLVSIIPDTVPSTDLLIETTASACYTLNNIIQNSYQNARDLLNTGGIQKIMAISAGDAYASNKASKAASVLLYSLWAHTELHHAYKKAQFKKTDFVNSRTAKAYHSLKD
partner: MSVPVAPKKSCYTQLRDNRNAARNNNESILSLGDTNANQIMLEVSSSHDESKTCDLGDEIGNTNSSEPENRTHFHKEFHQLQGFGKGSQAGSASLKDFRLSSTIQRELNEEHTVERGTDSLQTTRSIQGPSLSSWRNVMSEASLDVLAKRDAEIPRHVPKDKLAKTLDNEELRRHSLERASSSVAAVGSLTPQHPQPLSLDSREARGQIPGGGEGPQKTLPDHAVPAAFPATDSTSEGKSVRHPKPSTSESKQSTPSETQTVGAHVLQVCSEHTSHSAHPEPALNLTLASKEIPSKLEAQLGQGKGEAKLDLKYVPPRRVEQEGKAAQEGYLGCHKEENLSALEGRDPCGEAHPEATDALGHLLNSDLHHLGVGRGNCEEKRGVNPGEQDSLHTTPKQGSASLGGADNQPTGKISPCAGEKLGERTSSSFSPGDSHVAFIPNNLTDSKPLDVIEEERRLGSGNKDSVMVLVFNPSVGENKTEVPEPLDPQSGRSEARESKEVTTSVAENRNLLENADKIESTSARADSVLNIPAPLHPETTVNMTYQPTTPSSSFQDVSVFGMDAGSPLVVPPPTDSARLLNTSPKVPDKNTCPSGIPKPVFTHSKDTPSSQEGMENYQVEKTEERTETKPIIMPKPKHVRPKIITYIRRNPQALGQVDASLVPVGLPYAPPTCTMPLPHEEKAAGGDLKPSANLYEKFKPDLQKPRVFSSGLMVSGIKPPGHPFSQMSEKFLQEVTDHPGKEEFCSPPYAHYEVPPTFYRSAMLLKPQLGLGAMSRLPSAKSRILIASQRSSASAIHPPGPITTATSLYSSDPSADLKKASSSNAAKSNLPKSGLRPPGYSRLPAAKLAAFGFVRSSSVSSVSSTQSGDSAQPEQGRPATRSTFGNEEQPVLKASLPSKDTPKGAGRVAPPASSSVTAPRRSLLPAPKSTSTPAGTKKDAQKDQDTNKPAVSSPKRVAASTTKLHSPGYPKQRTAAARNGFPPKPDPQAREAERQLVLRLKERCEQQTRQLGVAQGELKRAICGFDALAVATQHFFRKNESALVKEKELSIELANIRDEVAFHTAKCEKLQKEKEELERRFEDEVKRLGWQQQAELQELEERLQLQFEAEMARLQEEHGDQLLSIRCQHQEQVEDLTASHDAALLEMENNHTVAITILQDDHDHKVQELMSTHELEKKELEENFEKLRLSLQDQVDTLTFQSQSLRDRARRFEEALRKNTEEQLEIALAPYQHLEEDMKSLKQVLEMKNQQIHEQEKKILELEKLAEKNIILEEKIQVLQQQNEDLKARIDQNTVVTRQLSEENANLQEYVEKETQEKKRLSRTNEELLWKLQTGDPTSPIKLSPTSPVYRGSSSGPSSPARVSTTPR
B4: EF-hand domain-containing protein 1 (Homo sapiens), Q5JVL4 (parent)
chain: B1 chain
partner: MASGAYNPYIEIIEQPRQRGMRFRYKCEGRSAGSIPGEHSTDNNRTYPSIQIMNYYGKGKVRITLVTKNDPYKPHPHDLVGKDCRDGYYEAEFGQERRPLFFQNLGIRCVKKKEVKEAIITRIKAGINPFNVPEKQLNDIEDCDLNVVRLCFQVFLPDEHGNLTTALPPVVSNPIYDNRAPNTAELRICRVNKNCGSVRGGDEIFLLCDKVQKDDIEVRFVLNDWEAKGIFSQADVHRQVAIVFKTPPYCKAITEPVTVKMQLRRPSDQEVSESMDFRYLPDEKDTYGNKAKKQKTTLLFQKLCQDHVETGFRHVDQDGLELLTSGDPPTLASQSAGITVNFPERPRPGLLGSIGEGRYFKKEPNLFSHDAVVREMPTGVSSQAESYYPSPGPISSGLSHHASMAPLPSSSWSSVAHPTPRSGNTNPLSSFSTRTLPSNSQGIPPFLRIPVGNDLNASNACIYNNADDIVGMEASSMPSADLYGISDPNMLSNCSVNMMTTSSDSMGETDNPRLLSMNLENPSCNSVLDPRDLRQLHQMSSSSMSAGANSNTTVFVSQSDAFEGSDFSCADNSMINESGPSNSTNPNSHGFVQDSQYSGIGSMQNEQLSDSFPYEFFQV

Variants of B1 are the subject of the first experiment. As to conditions: with 4et_human EIF4ENIF1, Q9NRA8.
In the case of P77T, the “effect of a mutation on the interaction” value is on record as “disrupting interaction”.

In a further experiment the parent is B2. As to conditions: with hgs_human HGS.
On to G112S, for which the “effect of a mutation on the interaction” value is on record as “disrupting interaction”.

The variants in a further experiment derive from B2. As to conditions: with stam2_human STAM2, O75886.
Turning to G112S, the “effect of a mutation on the interaction” value is given as “disrupting interaction”.

Variants of B2 are the subject of the next experiment. The conditions noted are these: with reep6_human REEP6, Q96HR9.
reep6_human REEP6, Q96HR9, sequence (Q96HR9 whole entry): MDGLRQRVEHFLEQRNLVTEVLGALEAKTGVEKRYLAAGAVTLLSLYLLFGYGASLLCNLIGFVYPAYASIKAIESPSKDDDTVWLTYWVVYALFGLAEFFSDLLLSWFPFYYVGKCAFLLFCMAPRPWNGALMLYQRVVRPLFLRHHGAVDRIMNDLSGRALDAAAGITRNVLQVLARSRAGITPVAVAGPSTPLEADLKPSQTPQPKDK
Consider G112S, for which the “effect of a mutation on the interaction” value is “disrupting interaction”.

The variants in the next experiment derive from B2. As to conditions: with UBQLN1, Q9UMX0-2.
UBQLN1, Q9UMX0-2, sequence (Q9UMX0 other isoform, or with tags, fused parts or gaps): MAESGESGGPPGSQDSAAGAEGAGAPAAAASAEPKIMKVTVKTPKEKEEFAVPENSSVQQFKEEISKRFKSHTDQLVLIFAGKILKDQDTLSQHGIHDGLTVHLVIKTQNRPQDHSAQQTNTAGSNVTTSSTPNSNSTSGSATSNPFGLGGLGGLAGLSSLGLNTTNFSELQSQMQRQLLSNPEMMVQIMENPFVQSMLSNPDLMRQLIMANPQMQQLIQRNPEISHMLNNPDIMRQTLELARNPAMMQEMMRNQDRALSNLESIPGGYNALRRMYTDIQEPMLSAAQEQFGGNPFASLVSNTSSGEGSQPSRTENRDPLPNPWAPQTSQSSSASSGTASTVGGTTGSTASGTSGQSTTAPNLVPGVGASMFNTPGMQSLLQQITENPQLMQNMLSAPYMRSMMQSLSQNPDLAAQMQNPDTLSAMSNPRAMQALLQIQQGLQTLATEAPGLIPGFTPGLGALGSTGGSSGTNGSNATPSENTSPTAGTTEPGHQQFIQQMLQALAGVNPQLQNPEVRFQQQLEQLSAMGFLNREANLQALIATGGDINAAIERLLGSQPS
Turning to G112S, the “effect of a mutation on the interaction” value was “disrupting interaction”.

In a further experiment the parent is B2. As to conditions: with ubql1_human UBQLN1, Q9UMX0.
ubql1_human UBQLN1, Q9UMX0, sequence (Q9UMX0 whole entry): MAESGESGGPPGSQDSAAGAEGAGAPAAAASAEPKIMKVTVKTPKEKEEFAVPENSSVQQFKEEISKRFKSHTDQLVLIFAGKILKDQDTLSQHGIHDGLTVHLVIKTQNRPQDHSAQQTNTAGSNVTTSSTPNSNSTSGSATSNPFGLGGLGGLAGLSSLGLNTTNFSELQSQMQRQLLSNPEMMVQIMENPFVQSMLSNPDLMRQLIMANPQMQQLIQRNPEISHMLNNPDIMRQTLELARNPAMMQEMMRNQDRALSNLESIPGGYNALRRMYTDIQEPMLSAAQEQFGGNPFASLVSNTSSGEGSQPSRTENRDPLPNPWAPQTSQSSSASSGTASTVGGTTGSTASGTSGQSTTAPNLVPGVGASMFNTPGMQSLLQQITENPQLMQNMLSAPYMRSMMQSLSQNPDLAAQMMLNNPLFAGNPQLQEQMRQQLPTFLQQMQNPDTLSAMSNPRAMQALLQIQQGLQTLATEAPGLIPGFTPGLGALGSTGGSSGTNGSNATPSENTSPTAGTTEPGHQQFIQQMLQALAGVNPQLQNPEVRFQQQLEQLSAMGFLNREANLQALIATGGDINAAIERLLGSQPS
Regarding G112S, the “effect of a mutation on the interaction” value is reported as “disrupting interaction”.

Variants of B2 are the subject of another experiment. The conditions noted are these: with hgs_human HGS. This is another data set of the same source.
For A111G, the “effect of a mutation on the interaction” value is given as “disrupting interaction”.

In another experiment the parent is B2. The conditions noted are these: with stam2_human STAM2, O75886. This is another data set of the same source.
A111G: the “effect of a mutation on the interaction” value was “disrupting interaction”.

A further experiment covers variants of B2. As to conditions: with reep6_human REEP6, Q96HR9. The source holds these as a separate data set.
Consider A111G, for which the “effect of a mutation on the interaction” value is recorded as “disrupting interaction”.

The variants in another experiment derive from B2. The conditions noted are these: with UBQLN1, Q9UMX0-2. The source holds these as a separate data set.
For A111G, the “effect of a mutation on the interaction” value is “disrupting interaction”.

The variants in another experiment derive from B2. The conditions noted are these: with ubql1_human UBQLN1, Q9UMX0. This is another data set of the same source.
For A111G, the “effect of a mutation on the interaction” value is “disrupting interaction”.

Variants of B3 are the subject of the next experiment. As to conditions: with mtus2_human MTUS2, Q5JR59.
As to S644P, the “effect of a mutation on the interaction” value is “disrupting interaction”.

In the next experiment the parent is B3. The conditions noted are these: with mtus2_human MTUS2, Q5JR59. This is another data set of the same source.
S140F: the “effect of a mutation on the interaction” value is on record as “disrupting interaction”.

Variants of B4 are the subject of a further experiment. As to conditions: with rel_human REL.
Turning to R221H, the “effect of a mutation on the interaction” value was “disrupting interaction”.

In another experiment the parent is B4. The conditions noted are these: with rel_human REL. The source holds these as a separate data set.
On to A394S, for which the “effect of a mutation on the interaction” value is on record as “disrupting interaction”.

Variants of B4 are the subject of another experiment. As to conditions: with rel_human REL. The source holds these as a separate data set.
As to P77T, the “effect of a mutation on the interaction” value was “disrupting interaction”.

In another experiment the parent is B4. As to conditions: with rel_human REL. The source holds these as a separate data set.
In the case of T508R, the “effect of a mutation on the interaction” value is listed as “disrupting interaction”.

Source of the values: IntAct's records for PubMed 25416956.
